Data from patent US20170037151A1.

Key:
[1] = molecular target: Total SYK (human) (UniProt P43405); assay: IHC pathology score, share of the 15 human DLBCL biopsies scored positive
[2] = molecular target: SYK pY323 (human) (UniProt P43405); assay: as above
[3] = molecular target: endogenous pSYK (activated SYK, pSYK Y525/526) in stimulated human lymphoma/leukemia cells, xenografts and biopsies (human) (UniProt P43405); assay: IHC, PHTX 95L xenograft untreated, Aperio positive pixel count
[4] = molecular target: endogenous pSYK (activated SYK, pSYK Y525/526) in stimulated human lymphoma/leukemia cells, xenografts and biopsies (human) (UniProt P43405); assay: IHC, PHTX95L xenograft, SYK inhibitor-treated mice, Aperio positive pixel count
[5] = molecular target: endogenous pSYK (activated SYK, pSYK Y525/526) in stimulated human lymphoma/leukemia cells, xenografts and biopsies (human) (UniProt P43405); assay: IHC pathology score, share of the 15 human DLBCL biopsies scored positive

Work on “Epitomics 1688-1 anti-hSYK (total SYK) antibody” yielded a % Positive [1] of 100%.
With Epitomics 2173 anti-SYK pY323 antibody the % Positive [2] was 40%.
“Epitomics 2175-1 anti-pSYK Y525/526 antibody” showed a Percent Positive Pixel per total Pixel [3] of 8.21%, a Percent Positive Pixel per total Pixel [4] of 0.56% and a % Positive [5] of 40%.
